In article PMC11225919:

Target: T1, Fur (6xHis-tagged) (Salmonella enterica serovar Infantis 119944) (UniProt A0A4Z0KGQ7)
T1 sequence: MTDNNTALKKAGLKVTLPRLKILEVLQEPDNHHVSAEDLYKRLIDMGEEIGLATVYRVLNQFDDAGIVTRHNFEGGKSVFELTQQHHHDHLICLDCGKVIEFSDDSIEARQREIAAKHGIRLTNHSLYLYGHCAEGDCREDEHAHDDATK
Assay: EMSA

Q: How did the binding turn out when “CCGGGGTCGCGCCCCCATAAACGCCTCCCTGACAGAGGCCCGGATACCCCATCCGGGCCTCTGTTCTTTCCGCCTGTTACCAACCCGAAACGGGCATAAATAAACCCGTTTCGGGTAGCATACAATTGTTAATAATTATTATTCTCATATGAGCAATGCTTTTCGGTAAGACGTGCCATCAGGAGGAAGA (double strand) [irp2 promoter (pESI)]” was run?
A: binds
